Patent US20230295258A1

Target: IL-12 receptor of human T cells (human) (UniProt P42701)
Experiment: cell-based or functional assay

Chain of IL-12 receptor of human T cells (human) (Q99665 24-862, chain 2 of 2, other chains not shown): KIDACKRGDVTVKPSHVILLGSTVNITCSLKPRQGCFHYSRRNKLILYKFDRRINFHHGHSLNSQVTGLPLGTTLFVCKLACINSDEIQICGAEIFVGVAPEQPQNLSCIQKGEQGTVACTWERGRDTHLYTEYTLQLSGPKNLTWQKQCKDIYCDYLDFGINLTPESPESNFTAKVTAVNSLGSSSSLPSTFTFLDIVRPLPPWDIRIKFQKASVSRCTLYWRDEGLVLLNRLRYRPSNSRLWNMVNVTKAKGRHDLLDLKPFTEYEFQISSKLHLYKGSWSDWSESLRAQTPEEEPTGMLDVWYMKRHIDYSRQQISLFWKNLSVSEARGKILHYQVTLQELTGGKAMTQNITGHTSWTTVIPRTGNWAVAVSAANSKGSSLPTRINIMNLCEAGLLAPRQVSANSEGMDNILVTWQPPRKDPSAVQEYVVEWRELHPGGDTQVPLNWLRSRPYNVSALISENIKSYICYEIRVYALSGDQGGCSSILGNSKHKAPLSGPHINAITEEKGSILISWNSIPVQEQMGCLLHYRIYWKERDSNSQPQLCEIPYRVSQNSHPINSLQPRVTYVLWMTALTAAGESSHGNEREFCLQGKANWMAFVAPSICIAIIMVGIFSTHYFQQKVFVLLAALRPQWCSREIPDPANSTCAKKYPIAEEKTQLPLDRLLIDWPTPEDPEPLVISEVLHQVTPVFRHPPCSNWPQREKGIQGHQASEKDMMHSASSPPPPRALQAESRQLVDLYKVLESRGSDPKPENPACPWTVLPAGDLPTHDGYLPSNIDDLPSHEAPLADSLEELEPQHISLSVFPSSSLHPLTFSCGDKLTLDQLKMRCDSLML

half maximal effective concentration (EC50) of p-STAT4 (Tyr693) in activated human T cells, AlphaLISA: 8.95 pM
Substance: recombinant human IL-12 (from UniProt P29459 23-219; P29460 23-328) (ligand)
